Test [1] deals with biotinylated soluble leucine-zippered HLA-DO with αP10aA (bio-szDOv), beta chain with C-terminal Avitag (human) (UniProt P06340). Put plainly: BLI. (BLI is a label-free optical method that tracks binding on a fibre tip over time.)
The target in test [2] is soluble HLA-DM (sDM), wild type (human, UniProt P28067;P28068). As to the kind of experiment: enzyme inhibition kinetics.

Experimental findings from article PMC3537886 (Nature structural & molecular biology, 2012) are described below.

A word on the Ki: it is the equilibrium dissociation constant of an inhibitor or competing ligand from its target. Higher therefore signals a looser hold on the target.

Take “sDM mutant αR98E,R194E (from UniProt P28067;P28068) (complex)”: the binding affinity relative to the wild type (fold of the wild-type affinity) in test [1] worked out at 0.0025.

B1: soluble HLA-DO Ig-fusion protein (sDO-Fc) (Fc fusion)
chain 1: TKADHMGSYGPAFYQSYGASGQFTHEFDEEQLFSVDLKKSEAVWRLPEFGDFARFDPQGGLAGIAAIKAHLDILVERSNRSRAINVPPRVTVLPKSRVELGQPNILICIVDNIFPPVINITWLRNGQTVTEGVAQTSFYSQPDHLFRKFHYLPFVPSAEDVYDCQVEHWGLDAPLLRHWELQVPIPPPDAME
chain 2: TDSPEDFVIQAKADCYFTNGTEKVQFVVRFIFNLEEYVRFDSDVGMFVALTKLGQPDAEQWNSRLDLLERSRQAVDGVCRHNYRLGAPFTVGRKVQPEVTVYPERTPLLHQHNLLHCSVTGFYPGDIKIKWFLNGQEERAGVMSTGPIRNGDWTFQTVVMLEMTPELGHVYTCLVDHSSLLSPVSVEWRAQSEYSWRK
B1 registered a Ki in test [2] of 290 ± 20 nM.
